Experimental data: paper PMC11341690
Changes are numbered by the printed parent chain.

T1: PglX WT (Salmonella D23580 (S. Typhimurium), UniProt A0A6C7IK61 1-1225)
T1 sequence: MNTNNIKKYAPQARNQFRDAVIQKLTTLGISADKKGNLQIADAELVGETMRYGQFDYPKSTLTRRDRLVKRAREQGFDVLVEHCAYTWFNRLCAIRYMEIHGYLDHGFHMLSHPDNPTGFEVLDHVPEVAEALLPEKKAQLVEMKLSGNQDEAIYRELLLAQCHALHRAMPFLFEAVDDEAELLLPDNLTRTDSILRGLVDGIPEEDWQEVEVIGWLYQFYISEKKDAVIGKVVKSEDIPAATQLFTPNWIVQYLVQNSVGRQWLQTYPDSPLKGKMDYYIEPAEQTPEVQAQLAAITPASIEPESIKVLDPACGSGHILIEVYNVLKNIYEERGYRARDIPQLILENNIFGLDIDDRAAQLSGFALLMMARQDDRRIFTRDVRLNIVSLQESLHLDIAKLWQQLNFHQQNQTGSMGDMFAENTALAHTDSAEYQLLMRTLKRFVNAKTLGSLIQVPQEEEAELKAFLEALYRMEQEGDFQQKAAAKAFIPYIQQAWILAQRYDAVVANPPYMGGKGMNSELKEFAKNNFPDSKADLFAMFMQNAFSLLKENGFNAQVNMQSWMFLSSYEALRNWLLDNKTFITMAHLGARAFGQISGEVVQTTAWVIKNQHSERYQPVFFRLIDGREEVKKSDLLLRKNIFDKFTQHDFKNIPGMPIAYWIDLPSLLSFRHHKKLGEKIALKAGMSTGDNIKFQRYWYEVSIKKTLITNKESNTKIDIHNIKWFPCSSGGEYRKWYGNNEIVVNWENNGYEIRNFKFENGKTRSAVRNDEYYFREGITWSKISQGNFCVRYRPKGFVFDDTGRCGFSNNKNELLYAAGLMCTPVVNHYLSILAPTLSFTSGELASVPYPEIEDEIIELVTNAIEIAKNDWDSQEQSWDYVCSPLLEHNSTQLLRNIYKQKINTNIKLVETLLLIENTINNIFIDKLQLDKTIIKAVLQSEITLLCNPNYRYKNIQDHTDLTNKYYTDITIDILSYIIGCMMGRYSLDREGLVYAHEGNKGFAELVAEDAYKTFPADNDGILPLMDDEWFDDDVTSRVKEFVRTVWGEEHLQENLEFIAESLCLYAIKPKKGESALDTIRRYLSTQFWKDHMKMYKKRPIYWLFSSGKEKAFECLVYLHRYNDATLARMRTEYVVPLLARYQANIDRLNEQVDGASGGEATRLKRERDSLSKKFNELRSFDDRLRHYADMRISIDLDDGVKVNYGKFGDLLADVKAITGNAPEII

T2: PglX NTD (Salmonella D23580 (S. Typhimurium), UniProt A0A6C7IK61 1-661)
T2 sequence: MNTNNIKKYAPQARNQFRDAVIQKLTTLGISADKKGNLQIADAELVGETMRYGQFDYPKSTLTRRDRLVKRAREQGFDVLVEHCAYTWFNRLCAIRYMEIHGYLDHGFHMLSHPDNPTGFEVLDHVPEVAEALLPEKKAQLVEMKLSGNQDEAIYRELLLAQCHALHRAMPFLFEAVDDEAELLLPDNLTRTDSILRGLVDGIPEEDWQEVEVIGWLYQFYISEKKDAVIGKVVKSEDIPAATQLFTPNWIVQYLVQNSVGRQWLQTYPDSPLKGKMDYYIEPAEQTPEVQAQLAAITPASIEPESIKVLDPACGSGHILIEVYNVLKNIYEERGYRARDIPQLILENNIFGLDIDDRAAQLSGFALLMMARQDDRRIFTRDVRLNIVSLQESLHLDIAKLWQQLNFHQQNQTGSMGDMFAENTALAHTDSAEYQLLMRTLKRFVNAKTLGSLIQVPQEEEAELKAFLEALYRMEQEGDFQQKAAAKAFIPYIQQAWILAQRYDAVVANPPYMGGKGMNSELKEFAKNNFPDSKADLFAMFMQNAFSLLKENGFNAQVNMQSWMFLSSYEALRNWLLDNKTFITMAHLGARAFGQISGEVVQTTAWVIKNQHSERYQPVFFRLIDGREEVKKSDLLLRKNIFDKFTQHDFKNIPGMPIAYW

B1: DNA 1 (TRB2180/TRB2181) (dsDNA)
DNA 1: GGTATCCGTTCGTCATAGGCTCAAAGCGTCTCCTGAGTCTCGGATCAGTACGAACTACCGGAACCAACACGACTGATCGTCTTCGGTGACCATTGCAACACTAGTATCTCGAGTGCCGTG
DNA 2: CACGGCACTCGAGATACTAGTGTTGCAATGGTCACCGAAGACGATCAGTCGTGTTGGTTCCGGTAGTTCGTACTGATCCGAGACTCAGGAGACGCTTTGAGCCTATGACGAACGGATACC
B2: DNA 4 (TRB2186/TRB2187) (dsDNA)
DNA 1: B1 DNA 1 with G43T, A44G, C46A, A47C, G48C, T74A, G75A, A76T, T77A
DNA 2: B1 DNA 2 with A44T, T45A, C46T, A47T, C73G, T74G, G75T, T77C, C78A
B3: DNA 3 (TRB2184/TRB2185) (dsDNA)
DNA 1: B1 DNA 1 with T74A, G75A, A76T, T77A
DNA 2: B1 DNA 2 with A44T, T45A, C46T, A47T
B4: DNA 2 (TRB2182/TRB2183) (dsDNA)
DNA 1: B1 DNA 1 with C73G, T74A, G75T, A76C, T77A, C78G
DNA 2: B1 DNA 2 with G43C, A44T, T45G, C46A, A47T, G48C

Assays:
[1] = target: PglX (Salmonella enterica serovar Typhimurium ST313 strain D23580 BREX methyltransferase), wild type (Salmonella enterica serovar Typhimurium ST313 strain D23580); test: mass photometry; PglX proteins with equimolar Ocr; TwoMP (Refeyn); 1 uM for 1 h on ice in 10 mM Tris pH 7.9, 25 mM NaCl, 0.5 uM SAM, 0.5 uM MgCl2, then diluted to 5 nM
PglX-SAM:Ocr complex = target: T3, PglX-SAM:Ocr complex (Salmonella enterica, UniProt A0A6C7IK61); settings: PglX incubated with 1 mM SAM, then Ocr, before crystallisation; same methyltransferase pocket
T3 construct: gene STMMW_44401

PglX (PglX-SAM) = target: T4, PglX (PglX-SAM) (Salmonella enterica, UniProt A0A6C7IK61); settings: PglX incubated with 1 mM SAM before crystallisation; methyltransferase pocket between GSG and NPPY motifs; no DNA
T4 construct: gene STMMW_44401

PglX WT [2] = target: T1, PglX WT; test: mass photometry; 1:1 and 2:1 complexes; mass photometry (Refeyn); buffer, salt, pH and temperature not given in the material; settings: protein: recombinant; tags: untagged (His/SUMO tag removed by hSENP2); blunt
PglX NTD = target: T2, PglX NTD; test: mass photometry; NTD peak may include free DNA; mass photometry (Refeyn); buffer, salt, pH and temperature not given in the material; settings: protein: recombinant; tags: untagged (His/SUMO tag removed by hSENP2); blunt
PglX WT [3] = target: T1, PglX WT; test: mass photometry; 1:1, 2:1 and 3:1 complexes; non-specific; mass photometry (Refeyn); buffer, salt, pH and temperature not given in the material; settings: protein: recombinant; tags: untagged (His/SUMO tag removed by hSENP2); blunt
PglX WT [4] = target: T1, PglX WT; test: mass photometry; 1:1, 2:1 and 3:1 complexes; mass photometry (Refeyn); buffer, salt, pH and temperature not given in the material; settings: protein: recombinant; tags: untagged (His/SUMO tag removed by hSENP2); blunt

| Molecule | binding result (PglX WT [2]) | binding result (PglX NTD) | also measured |
| --- | --- | --- | --- |
| Ocr from phage T7 (DNA mimic, anti-restriction and anti-BREX protein) (from UniProt P03775 1-117) (natural protein) |  |  | stoichiometry N (Ocr per PglX (1:2 PglX WT:Ocr)) [1]: 2; stoichiometry N (Ocr per PglX (2:2 PglX WT:Ocr)) [1]: 1 |
| C[S+](CC[C@H](N)C(=O)O)C[C@H]1O[C@@H](n2cnc3c(N)ncnc32)[C@H](O)[C@@H]1O (stereo partly drawn) [SAM, S-adenosyl-L-methionine] |  |  | X-ray crystal structure, 3.5 A (PglX-SAM:Ocr complex): visible in the PglX-SAM:Ocr structure is a bound SAM molecule; X-ray crystal structure, 3.5 A (PglX (PglX-SAM)): crystallographic structure of Salmonella PglX bound to S-adenosyl-L-methionine (SAM), a co-factor for methylation |
| B1 | binds | no binding |  |
| B2 |  | no binding | binding result (PglX WT [3]): binds |
| B3 |  | no binding | binding result (PglX WT [4]): binds |
| B4 | binds | no binding |  |
